Where a SMILES comes first, the peptide text is derived from it. Where no end group is shown, it is not given here. [ ]: non-standard residue; d: D form. ξ: configuration not given here. ξαMeBip(2'-Et,4'-OMe) = CCc1cc(OC)ccc1-c1ccc(CC(C)(N)C(=O)O)cc1; αMePhe(2,6-F2) = C[C@](N)(Cc1c(F)cccc1F)C(=O)O; ξαMePhe(2,6-F2) = CC(N)(Cc1c(F)cccc1F)C(=O)O; αMePhe(2-F) = C[C@](N)(Cc1ccccc1F)C(=O)O; αMeBip(OMe) = alpha-methylated Bip(OMe); ξαMePhe(2-F) = CC(N)(Cc1ccccc1F)C(=O)O; hhPhe = N[C@@H](CCCc1ccccc1)C(=O)O; ξhhPhe = NC(CCCc1ccccc1)C(=O)O; ξαMeD = CC(N)(CC(=O)O)C(=O)O; αMeP = C[C@@]1(C(=O)O)CCCN1; ξαMeP = CC1(C(=O)O)CCCN1; Ac5c = NC1(C(=O)O)CCCC1; Ac3c = NC1(C(=O)O)CC1; Aib = CC(C)(N)C(=O)O
How the values were obtained:
[1] = system: RIN5F (Rat Insulinoma) cells; experiment: In vitro glucose-dependent insulin secretion (RIN5F cell assay); type: cell-based; settings: 16.7-mM glucose load, n = 3, mean ± S.D.
Description: RIN5F (Rat Insulinoma) cells were cultured in RPMI 1640 medium supplemented with sodium pyruvate (1 mM) HEPES and Glucose (4.5 g/L) in a humidified incubator (5% CO2), at 37° C. After trypsinization, RIN5F cells were seeded at a concentration of 0.2×10^6 cells per well, in 12 well plates. The cells were grown overnight to 80% confluence and insulin secretion experiments were performed as follows (Montrose-Rafizadeh C., et al., Mol. Cell. Endo. 1997, 130, 109.; Wang, X., et al., Endocrinology 2001, 5, 1820).
The cells were washed once with PBS solution followed by 40 min. incubation in fresh Krebs-Ringer Balanced Buffer containing NaCl (115 mmol/L), KCl (4.7 mmol/L), CaCl2 (1.28 mmol/L), MgSO4.7H2O (1.2 mmol/L), KH2PO4 (1.2 mmol/L), NaHCO3 (10 mmol/L) and HEPES (25 mmol/L), containing Glucose (1.1 mM) and B.S.A (0.5%), pH 7.4. The buffer was replaced after 40 min. and the cells were incubated (37° C.) with the test peptidomimetics, at different concentration, for 30 min., both in the presence (16.7 mM) and absence (0 mM) of glucose load. The supernatant was collected and the insulin amount was measured by ultra sensitive Rat insulin ELISA kit (Crystal Chem, IL). The protein was estimated in the supernatant using Bicinchoninic Acid kit, according to the manufacturer's protocol (Sigma Aldrich, MO). The total insulin content obtained in Pico-gram (pg) was divided with the total protein (μg) in order to normalize for differences in cell density between wells.

human glucagon receptor = human glucagon receptor (human, UniProt P47871 26-477); experiment: cell-based or functional assay
Chain of human glucagon receptor (P47871 26-477): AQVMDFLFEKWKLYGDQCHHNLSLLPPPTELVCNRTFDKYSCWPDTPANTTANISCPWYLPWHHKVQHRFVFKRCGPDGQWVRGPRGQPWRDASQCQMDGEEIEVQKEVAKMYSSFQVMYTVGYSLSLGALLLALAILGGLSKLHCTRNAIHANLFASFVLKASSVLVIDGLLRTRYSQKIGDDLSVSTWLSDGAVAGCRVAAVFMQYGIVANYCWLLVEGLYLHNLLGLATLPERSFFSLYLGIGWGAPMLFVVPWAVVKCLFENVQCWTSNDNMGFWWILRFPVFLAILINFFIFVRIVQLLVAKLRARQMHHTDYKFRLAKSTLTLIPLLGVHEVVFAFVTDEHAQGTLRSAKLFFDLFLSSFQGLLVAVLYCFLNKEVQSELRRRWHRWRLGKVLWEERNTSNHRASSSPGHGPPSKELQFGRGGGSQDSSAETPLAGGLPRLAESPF

Molecule | Insulin secretion ([1]; 0.1 nM test compd.) [pg/µg/h] | Insulin secretion ([1]; 1 nM test compd.) [pg/µg/h] | Insulin secretion ([1]; 10 nM test compd.) [pg/µg/h] | cAMP production (pmol/ml/µg prt) with saturated glucagon peptide, at 1 nM (human glucagon receptor) [pmol/ml/µg prt] | cAMP production (pmol/ml/µg prt) with saturated glucagon peptide, at 10 nM (human glucagon receptor) [pmol/ml/µg prt] | cAMP production (pmol/ml/µg prt) with saturated glucagon peptide, at 100 nM (human glucagon receptor) [pmol/ml/µg prt] | cAMP production (pmol/ml/µg prt) with saturated glucagon peptide, at 1 µM (human glucagon receptor) [pmol/ml/µg prt] | cAMP production (pmol/ml/µg prt) with saturated glucagon peptide, at 10 µM (human glucagon receptor) [pmol/ml/µg prt]
CCc1cc(OC)ccc1-c1ccc(CC(C)(NC(=O)[C@H](CC(=O)O)NC(=O)[C@H](CO)NC(=O)[C@@H](NC(=O)[C@H](Cc2ccccc2)NC(=O)[C@@H](NC(=O)CNC(=O)[C@H](CCC(N)=O)NC(=O)[C@H](CO)NC(=O)[C@H](Cc2c[nH]cn2)NC(=O)[C@@H](N)C(C)C)[C@@H](C)O)[C@@H](C)O)C(=O)NC(CCCc2ccccc2)C(N)=O)cc1 (stereo partly shown) [compound 5] (H-VHSQGTFTSD[ξαMeBip(2'-Et,4'-OMe)][ξhhPhe]-NH2) | 12.1 ± 0.51 | 14.1 ± 0.19 | 28.1 ± 0.29 | – | – | – | – | –
CCc1cc(OC)ccc1-c1ccc(CC(C)(NC(=O)[C@H](CC(=O)O)NC(=O)[C@H](CO)NC(=O)[C@@H](NC(=O)[C@H](Cc2ccccc2)NC(=O)[C@@H](NC(=O)CNC(=O)[C@H](CCC(N)=O)NC(=O)C2(C)CCCN2C(=O)[C@H](Cc2c[nH]cn2)NC(=O)[C@@H](N)C(C)C)[C@@H](C)O)[C@@H](C)O)C(=O)NC(CCCc2ccccc2)C(N)=O)cc1 (stereo partly shown) [compound 8] (H-VH[ξαMeP]QGTFTSD[ξαMeBip(2'-Et,4'-OMe)][ξhhPhe]-NH2) | 12.6 ± 0.25 | 15.3 ± 0.31 | 29.7 ± 0.48 | – | – | – | – | –
CCc1cc(OC)ccc1-c1ccc(CC(C)(NC(=O)[C@H](CC(=O)O)NC(=O)[C@H](CO)NC(=O)[C@@H](NC(=O)[C@H](Cc2ccccc2)NC(=O)[C@@H](NC(=O)CNC(=O)[C@H](CCC(N)=O)NC(=O)C2(NC(=O)[C@H](Cc3c[nH]cn3)NC(=O)[C@@H](N)C(C)C)CC2)[C@@H](C)O)[C@@H](C)O)C(=O)NC(CCCc2ccccc2)C(N)=O)cc1 (stereo partly shown) [compound 10] (H-VH[Ac3c]QGTFTSD[ξαMeBip(2'-Et,4'-OMe)][ξhhPhe]-NH2) | 12.0 ± 0.14 | 14.3 ± 0.12 | 27.8 ± 0.32 | – | – | – | – | –
CCc1cc(OC)ccc1-c1ccc(CC(C)(NC(=O)[C@H](CC(=O)O)NC(=O)[C@H](CO)NC(=O)[C@@H](NC(=O)[C@H](Cc2ccccc2)NC(=O)[C@@H](NC(=O)CNC(=O)[C@H](CCC(=O)O)NC(=O)C2(NC(=O)[C@H](Cc3c[nH]cn3)NC(=O)[C@@H](N)C(C)C)CCCC2)[C@@H](C)O)[C@@H](C)O)C(=O)NC(CCCc2ccccc2)C(N)=O)cc1 (stereo partly shown) [compound 15] (H-VH[Ac5c]EGTFTSD[ξαMeBip(2'-Et,4'-OMe)][ξhhPhe]-NH2) | 15.3 ± 0.19 | 21.2 ± 0.11 | 35.5 ± 0.19 | – | – | – | – | –
CCc1cc(OC)ccc1-c1ccc(CC(C)(NC(=O)[C@H](CC(=O)O)NC(=O)[C@H](CO)NC(=O)[C@@H](NC(=O)C(C)(Cc2ccccc2F)NC(=O)[C@@H](NC(=O)CNC(=O)[C@H](CCC(N)=O)NC(=O)C2(C)CCCN2C(=O)[C@H](Cc2c[nH]cn2)NC(=O)[C@@H](N)C(C)C)[C@@H](C)O)[C@@H](C)O)C(=O)NC(CCCc2ccccc2)C(N)=O)cc1 (stereo partly shown) [compound 20] (H-VH[ξαMeP]QGT[ξαMePhe(2-F)]TSD[ξαMeBip(2'-Et,4'-OMe)][ξhhPhe]-NH2) | 11.1 ± 0.12 | 13.1 ± 0.13 | 19.0 ± 0.16 | – | – | – | – | –
CCc1cc(OC)ccc1-c1ccc(CC(C)(NC(=O)[C@H](CC(=O)O)NC(=O)[C@H](CO)NC(=O)[C@@H](NC(=O)C(C)(Cc2c(F)cccc2F)NC(=O)[C@@H](NC(=O)CNC(=O)[C@H](CCC(N)=O)NC(=O)[C@H](CO)NC(=O)[C@H](Cc2c[nH]cn2)NC(=O)[C@@H](N)C(C)C)[C@@H](C)O)[C@@H](C)O)C(=O)NC(CCCc2ccccc2)C(N)=O)cc1 (stereo partly shown) [compound 25] (H-VHSQGT[ξαMePhe(2,6-F2)]TSD[ξαMeBip(2'-Et,4'-OMe)][ξhhPhe]-NH2) | 12.6 ± 0.20 | 15.9 ± 0.31 | 28.4 ± 0.11 | – | – | – | – | –
CCc1cc(OC)ccc1-c1ccc(CC(C)(NC(=O)C(C)(CC(=O)O)NC(=O)[C@H](CO)NC(=O)[C@@H](NC(=O)[C@H](Cc2ccccc2)NC(=O)[C@@H](NC(=O)CNC(=O)[C@H](CCC(N)=O)NC(=O)C2(C)CCCN2C(=O)[C@H](Cc2c[nH]cn2)NC(=O)[C@@H](N)C(C)C)[C@@H](C)O)[C@@H](C)O)C(=O)NC(CCCc2ccccc2)C(N)=O)cc1 (stereo partly shown) [compound 60] (H-VH[ξαMeP]QGTFTS[ξαMeD][ξαMeBip(2'-Et,4'-OMe)][ξhhPhe]-NH2) | 15.6 ± 0.33 | 21.8 ± 0.16 | 35.6 ± 0.26 | – | – | – | – | –
VVH[Aib]EGTFTSD[αMeBip(OMe)][hhPhe] (not fully specified (C-terminus); printed as VVH-Aib-EGTFTSD-(αMe-Bip(OMe))-(APPA)) [Seq. ID. No. 211] | – | – | – | 6 | 5 | 2 | 0 | 0
VVH[αMeP]QGT[αMePhe(2-F)]TSD[αMeBip(OMe)][hhPhe]-NH2 [Seq. ID. No. 216] | – | – | – | 0 | 0 | 0 | 0 | 0
VVH[Aib]EGT[αMePhe(2,6-F2)]TSD[αMeBip(OMe)][hhPhe]-NH2 [Seq. ID. No. 227] | – | – | – | 19 | 17 | 15 | 14 | 12
VVHSEGT[αMePhe(2-F)]TSD[αMeBip(OMe)][hhPhe]-NH2 [Seq. ID. No. 217] | – | – | – | 5 | 2 | 0 | 0 | 0
VVHSEGTFTSD[αMeBip(OMe)][hhPhe] (not fully specified (C-terminus); printed as VVHSEGTFTSD-(αMe-Bip(OMe))-(APPA)) [Seq. ID. No. 209] | – | – | – | 0 | 0 | 0 | 0 | 0

— US20120264685A1 (priority 2009, published 2012)
